Reference: article doi:10.1101/479162v2
Changes are numbered by the printed parent chain. Names may count otherwise.

B1: SpAS1 (arylsulfatase 1 from Silicibacter pomeroyi DSS-3), purified (Ruegeria pomeroyi DSS-3) (protein)
chain: MTQNRNILWIMCDQLRFDYLSCYGHERLNTPNIDKLAKRGVRFTNAYVQATVCGPSRMSAYTGRYVRSHGSTQNGIPLRVGEPTLGDHLRDVGMRNVLIGKTHMRPDLDGMKRLGIDPDSEIGARVGEGGFDAFDRDDGVHPTGYRKKEPAYNDYLRHAGFQAENPWEFWANSAEGKGGENQSGWLLTHADKPARVPEEHSETAYMTRRAMEFMEAAEKDGRPWCAHLSYIKPHWPYIVPAPYHDMFGPDDVKPAVRSDEELKAAHPLFKAMTEEVYSRNFARDEVREKVIPAYMGLIKQIDDQLGQLFAFMQERGLDENTMIVFTADHGDYLGDHWMGEKYLFYEAAAKVPLIIYDPSDKADATRGTVSDALVEMIDLAPTFVDYAGGVPPMHILEGKSLLPLLHDDDSSWDRQYVFSELDYSNLPARLKLGRDIQDCRATMVFDGRYKLVEVMGFAPILFDLEVDPDELKDLGRDPSAEEVRQRLTSALDAWHRNTRQRITKSDAAYRALDPVLRESDPDLMAGVIIGYWDEDEVEAEKRRIARILGENS
B2: SpAS1 (arylsulfatase 1 from Silicibacter pomeroyi DSS-3), purified (Ruegeria pomeroyi DSS-3; R429Q) (protein)
chain: B1 chain with R429Q
B3: SpAS1 (arylsulfatase 1 from Silicibacter pomeroyi DSS-3), purified (Ruegeria pomeroyi DSS-3; K147E/M111T) (protein)
chain: B1 chain with M111T, K147E

What was measured:
Conditions in all cases: KSI (substrate inhibition) also fitted
[1] = substrate: O=C1OC2(c3ccc(OS(=O)(=O)O)cc3Oc3cc(OS(=O)(=O)O)ccc32)c2ccccc21; test: fluorescence, Michaelis-Menten kinetics of purified enzyme; type: biochemical, Ruegeria pomeroyi
purified protein [2] = substrate: O=[N+]([O-])c1ccc(OS(=O)(=O)O)cc1; test: purified protein
purified protein [3] = substrate: O=C1OC2(c3ccc(OS(=O)(=O)O)cc3Oc3cc(OS(=O)(=O)O)ccc32)c2ccccc21; test: purified protein

Protein	Km [1]	kcat [1]	Km (purified protein [2])	kcat (purified protein [2])	Km (purified protein [3])	kcat (purified protein [3])
B1	4.5 ± 0.5 mM	0.116 ± 0.004 s⁻¹	7.1 ± 1.7 mM	34 ± 5 s⁻¹	–	–
B2	1.0 ± 0.1 mM	0.77 ± 0.04 s⁻¹	7.3 ± 1.5 mM	26 ± 3 s⁻¹	–	–
B3	–	–	3.4 ± 0.3 mM	100 ± 4 s⁻¹	2.4 ± 0.2 mM	0.074 ± 0.002 s⁻¹
